{"source": "paper PMC12117093", "target": "5-IAF-labeled p53-TAD A63C mutant (UniProt P04637)", "assay": "fluorescence polarisation"}
{"substance": "FOXO4 Forkhead DNA-binding domain (FOXO4-DBD, residues 86-211) (from UniProt P98177 86-211) (domain or fragment)", "values": [{"measurement": "Kd", "result": 42, "unit": "µM"}]}
